Data from article doi:10.1101/2021.05.24.445441 (bioRxiv, 2021).
No end group written: not given here.

B1: human TrkA-TM (domain or fragment)
chain: MKKDETPFGVSVAVGLAVFACLFLSTLLLVLNKAGRRNK
modifications: also: 15N-labelled in one titration, unlabelled in the other

Key:
p75-TM-C257A (human) = assay: NMR cross-correlated relaxation rates
NMR titration = target: the molecule itself; assay: NMR titration

Molecule	stoichiometry N (p75-TM-C257A (human))	binding result (NMR titration)
p75-TM-C257A (domain or fragment)	2	
B1		binds
